Reference: US20220259325A1

Legend:
[1] = target: human MASP-2 (protein in human serum or plasma) (human)
[2] = target: human MASP-1 (protein in human serum) (human)
human MASP-1 (protein in human serum) (human), sequence (chain, as listed by the source): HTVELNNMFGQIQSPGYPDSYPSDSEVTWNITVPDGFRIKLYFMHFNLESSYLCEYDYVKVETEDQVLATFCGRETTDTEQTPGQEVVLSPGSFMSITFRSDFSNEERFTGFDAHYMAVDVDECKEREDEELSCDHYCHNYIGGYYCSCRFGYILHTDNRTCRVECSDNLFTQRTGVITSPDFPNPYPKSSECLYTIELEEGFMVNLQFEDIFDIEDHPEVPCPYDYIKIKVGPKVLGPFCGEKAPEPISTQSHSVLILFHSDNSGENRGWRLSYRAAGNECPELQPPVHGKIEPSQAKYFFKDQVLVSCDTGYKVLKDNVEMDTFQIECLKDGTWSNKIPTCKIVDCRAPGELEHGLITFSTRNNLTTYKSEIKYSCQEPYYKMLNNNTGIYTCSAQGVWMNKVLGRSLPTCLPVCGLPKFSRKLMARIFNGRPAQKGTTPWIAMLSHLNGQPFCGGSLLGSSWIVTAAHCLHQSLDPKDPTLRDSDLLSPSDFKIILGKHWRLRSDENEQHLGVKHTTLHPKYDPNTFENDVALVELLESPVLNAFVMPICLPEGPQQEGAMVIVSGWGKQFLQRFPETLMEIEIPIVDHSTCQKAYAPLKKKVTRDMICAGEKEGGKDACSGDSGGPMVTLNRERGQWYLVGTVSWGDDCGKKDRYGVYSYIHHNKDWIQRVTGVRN

SGMI-2Fc (mature polypeptide fusion comprising SGMI-2, linker #1 and human IgG1-Fc) (Fc fusion)
C3b deposition from 1% normal human serum on mannan-coated wells (IC50) [1]: 300 nM

SGMI-1Fc (mature polypeptide fusion comprising SGMI-1, linker #1 and human IgG1-Fc) (Fc fusion)
C3b deposition from 1% normal human serum on mannan-coated wells (IC50) [2]: 27 nM
